Laboratory results: US20210292433A1 (MUSC FOUNDATION FOR RESEARCH DEVELOPMENT, published 2021)

Target: T1, human GARP (Glycoprotein A Repetitions Predominant, LRRC32) stably expressed on Pre-B (70Z/3) cells (human, UniProt Q14392 20-662)
T1 construct: whole, on cells; also called hGARP; huGARP
T1 sequence (looked up): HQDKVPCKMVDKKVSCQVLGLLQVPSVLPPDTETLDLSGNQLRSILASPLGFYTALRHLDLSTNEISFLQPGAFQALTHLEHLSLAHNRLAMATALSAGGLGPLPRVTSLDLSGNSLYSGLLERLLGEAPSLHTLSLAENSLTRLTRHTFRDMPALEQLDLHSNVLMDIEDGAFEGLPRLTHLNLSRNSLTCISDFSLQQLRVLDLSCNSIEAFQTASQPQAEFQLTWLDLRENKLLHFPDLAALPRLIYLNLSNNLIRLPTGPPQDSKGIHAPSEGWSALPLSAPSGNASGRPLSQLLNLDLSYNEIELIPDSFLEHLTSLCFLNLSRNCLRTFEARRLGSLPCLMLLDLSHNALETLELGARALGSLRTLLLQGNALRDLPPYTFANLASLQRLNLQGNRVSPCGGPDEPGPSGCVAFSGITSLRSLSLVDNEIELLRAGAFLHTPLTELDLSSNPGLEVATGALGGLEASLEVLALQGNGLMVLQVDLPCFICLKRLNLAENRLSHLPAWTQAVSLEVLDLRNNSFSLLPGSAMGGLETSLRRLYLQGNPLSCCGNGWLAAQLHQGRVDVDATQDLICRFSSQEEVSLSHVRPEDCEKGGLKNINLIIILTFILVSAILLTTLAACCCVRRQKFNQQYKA
Assay: flow cytometry on Pre-B cells stably expressing human GARP (FIG. 7A)

B1: 5C5 anti-GARP monoclonal antibody (antibody, V domains shown)
VH: EVKLVESGGGSVKPGGSLKLSCAASGFTFSNYVMSWVRQTPEKRLEWVATISSGGSYTYYPDSVKGRLTISRDNAKNTLYLQMSSLRSEDTAMYYCARGYDNGDYVMDYWGQGTSVTVSS
VL: DIVLTQSPASLAVSLGQRATISCRASESVDTYGNSFMHWYQQIPGQPPKVLIYRASNLESGIPARFSGSGSRTDFTLTINPVEAGDVATYYCQQTNEHPPTFGGGTKLEIK
notes: Mouse hybridoma mAb; also called 5C5 (IgG2a)
B1: binds.
